Laboratory results: patent US9416187B2, “CD-20 specific antibodies and methods of employing same” (Duke University, dated 2016)

T1: human CD20 (human, UniProt P11836)
T1 sequence: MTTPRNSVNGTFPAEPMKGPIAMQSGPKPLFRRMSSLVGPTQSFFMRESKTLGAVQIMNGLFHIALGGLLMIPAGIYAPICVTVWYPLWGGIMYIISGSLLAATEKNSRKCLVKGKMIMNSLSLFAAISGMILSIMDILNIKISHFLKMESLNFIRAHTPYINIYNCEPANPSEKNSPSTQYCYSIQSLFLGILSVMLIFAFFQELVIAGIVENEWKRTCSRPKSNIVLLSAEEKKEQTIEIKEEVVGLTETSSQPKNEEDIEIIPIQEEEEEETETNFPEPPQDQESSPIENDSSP

T2: mouse CD20 (mouse, UniProt P19437)
T2 sequence: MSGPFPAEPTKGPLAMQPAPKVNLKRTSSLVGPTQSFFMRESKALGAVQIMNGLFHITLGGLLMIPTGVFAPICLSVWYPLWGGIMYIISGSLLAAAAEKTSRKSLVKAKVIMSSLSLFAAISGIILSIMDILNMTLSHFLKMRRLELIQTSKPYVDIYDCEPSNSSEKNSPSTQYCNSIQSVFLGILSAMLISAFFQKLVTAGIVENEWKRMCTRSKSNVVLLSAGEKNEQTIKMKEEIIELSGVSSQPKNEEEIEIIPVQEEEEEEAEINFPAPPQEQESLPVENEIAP


Assays:
[1] = molecular target: T1, human CD20; experiment: flow cytometry, human blood B cells, saturating antibody
[2] = molecular target: T1, human CD20; experiment: flow cytometry, DHL-4 cells, saturating antibody
[3] = molecular target: T1, human CD20; experiment: flow cytometry, Raji cells, saturating antibody
[4] = molecular target: T1, human CD20; experiment: flow cytometry, BJAB cells, saturating antibody
[5] = molecular target: T2, mouse CD20; experiment: flow cytometry, spleen CD19+ B cells, control staining
[6] = molecular target: T2, mouse CD20; experiment: flow cytometry, spleen CD19+ B cells, 0.5 µg/mL antibody

Molecule | mean linear fluorescence intensity [1] | mean linear fluorescence intensity [2] | mean linear fluorescence intensity [3] | mean linear fluorescence intensity [4] | mean linear fluorescence intensity [5] | B cell reactivity (mean linear fluorescence intensity) [6]
B9E9 anti-CD20 monoclonal antibody | 112 | 162 | 438 | 377 |  | 
1F5 anti-CD20 monoclonal antibody | 104 | 169 | 455 | 386 |  | 
isotype-matched control monoclonal antibodies |  |  |  |  | < 6 | 
HB20-25 monoclonal antibody (antibody, V domains shown) VH: EVQLQESGAELVKPGASVKMSCKASGFRFTNYNLHWVKQTPGQGLEWIGAIYPGNGETSYNQKFKGKATLTADKSSSTAYMQLRSLTSGDSAVYYCARFYYYGSSYGAMDYWGQGTSVTVSS VL: MWGSVFNFSIVDARCDIQMTQSPASLSVSVGETVTITCRASENIYSNLAWYQQKQGKSPQLLVYAATNLADGVPSRFSGSGSGTQYSLKINSLQSEDFGSYYCQHFWGIPWTFGGGTKLEIKR | 227 | 514 | 1350 | 849 |  | 
MB20-2 monoclonal antibody (antibody, V domains shown) VH: EVQLQESGPELVKPGASVKISCKASGYMFTDYYIKWVKQSHGKSLEWIGDINPNNGDTIYNQKFKGKATLTVDKSSNTAYMDLRSLTSEDSAVYYCARERFAYWGQGTLVTVSA VL: EIVLTQSPTTMAASPGEKITITCSVSSSIRSNYLHWYQQKPGFSPKLLIYRTSNLASGVPARFSGSGSGTSYSLTVATMEAEDVATYYCQQGSSIPLTFGAGTKLELKR |  |  |  |  |  | 209
MB20-10 monoclonal antibody (antibody, V domains shown) VH: EVQLQESGPDLVKPGASVKISCKASGYTFTDYYMKWVKQSHGKSLDWIGDINPNNGDIIYNQKFEGKATLTVDKSSSTAYMELRSLTSEDSAVYYCARERFAYWGQGTLVTVSA VL: EIVLTQSPTTMAASPGEKITITCSVSSNIRSNYLHWYQQKPGFSPKLLIYRTSNLASGVPARFSGSGSGTSYSLTIGTMKAEDVATYYCQQGSSIPLTFGAGTKLELKR |  |  |  |  |  | 317
MB20-7 monoclonal antibody (antibody, V domains shown) VH: EVQLQESGPDLVKPGASVKISCKASGYMFTDYYMKWVKQSHGKSLEWIGDINPNNGDTTYNQKFEGKATLTVDKSSSTAYMELRSLTSEDSAVYYCARERFAYWGQGTLVTVSA VL: ELVLTQSPTTKAASPGEKITITCSVSSSIRSNYLHWYQQRPGFSPKLLIYRTSNLASGVPARFSGSGSGTSYSLTIGTMEAEDVATYYCQQGSSLPLTFGAGTKLELKR |  |  |  |  |  | 525
HB20-4 monoclonal antibody (antibody, V domains shown) VH: EVQLQESGAELVKPGASVKMSCKASGFTFTNYNMHWVKQTPGQGLEWIGAIYPENGDTSYNQRFKGKATLTADKSSSTAYMHLSSLTSEDTAVYFCARFYYYGSYYGALDYWGQGTSVTVSS VL: MWGSVFNFSIVGARCDIQMTQSPASLSASVGETVTITCRASGSIHNYLAWYQQKLGKSPQLLVYNAKTLADGVPSRFSGSGSGTQFSLKINSLQPEDFGSYYCQHFWSIPWTFGGGTKLEIKR | 397 | 578 | 1580 | 1100 |  | 
MB20-1 monoclonal antibody (antibody, V domains shown) VH: EVQLQESGGGLVQPGGSLKLSCAASGFTFSDYGMAWVRQAPRKGPEWVAFISNLAYSIYYADTVTGRFTISRENAKNTLYLEMSSLRSEDTAMYFCTRTGYYALDYWGQGTSVTVSS VL: NIMMTQSPSSLAVSAGEKVTMRCKSSQSVLYSSKRKNYLAWYQQKPGKSPTLLIYWASTRESGVPDRFTGSGSGTDFTLTITSVQAEDLAVYYCHQYLSSFTFGGGTKLEIKR |  |  |  |  |  | 69

The next lines start with the values.

mean linear fluorescence intensity [1] | mean linear fluorescence intensity [2] | mean linear fluorescence intensity [3] | mean linear fluorescence intensity [4] | mean linear fluorescence intensity [5] | B cell reactivity (mean linear fluorescence intensity) [6] | Molecule
277 | 486 | 944 | 700 |  |  | B1 anti-CD20 monoclonal antibody
 |  |  |  |  | 729 | MB20-18 monoclonal antibody (antibody, V domains shown) VH: EVQLQESGLDLVKPGASVKISCKASGYTFTDYYMKWVKQSHGKSLDWIGDINPNNGDIIYNQKFEGKATLTVDKSSSTAYMELRSLTSEDSAVYYCARERFAYWGQGTLVTVSA VL: SIVMTQTPKFLLVSTGDRVTITCKASQTVTNDLAWYQQKPGQSPKLLIYYASNRYTGVPDRFTGSGYGTDFTFTINTVQAEDLAVYFCQQDYSSPLTFGAGTKLELKR
 |  |  |  |  | 240 | MB20-8 monoclonal antibody (antibody, V domains shown) VH: EVQLQESGPDLVKPGASVKISCKASGYTFTDYYMKWVKQSHGKSLDWIGDINPNNGDIIYNQKFEGKATLTVDKSSSTAYMELRSLTSEDSAVYYCARERFAYWGQGTLVTVSA VL: EIVLTQSPTTMAASPGEKITITCSVSSNIRSNYLHWYQQKPGFSPKLLIYRTSNLASGVPARFSGSGSGTSYSLTIGTMKAEDVATYYCQQGSSIPLTFGAGTKLELKR
 |  |  |  |  | 166 | MB20-14 monoclonal antibody (antibody, V domains shown) VH: EVQLQESGPELVKPGASVKISCKASGYMFTDYYIKWVKQSHGKSLEWIGDINPNNGDTIYNQKFKGKATLTVDKSSNTAYMDLRILTSEDSAVYYCARERFAYWGQGTLVTVSA VL: EIVLTQSPTTMAASPGEKITITCSVSSSIRSNYLHWYQQKPGFSPKLLIYRTSNLASGVPARFSGSGSGTSYSLTVATMEAEDVATYYCQQGSSIPLTFGAGTKLELKR
469 | 765 | 2220 | 1200 |  |  | HB20-3 monoclonal antibody (antibody, V domains shown) VH: EVQLQESGAELVKPGASVKMSCKASGFTFTNYNMHWLKQTPGQGLEWIGAIYPENGDTSYNQKFKGKATLTADKASSTAYMHLSSLTSEDSAVYFCARFYYYGSYYGAMDYWGQGTSVTVSS VL: MWGSVFNFSIVGARCDIQMTQSPASLSASVGETVTITCRASGNIHNYLAWYQQKQGKSPQLLVYNAKTLADGVPSRFSGSGSGTQFSLKINSLQPEDFGSYYCQHFWSTPWTFGGGTKLEIKR
 |  |  |  |  | 603 | MB20-13 monoclonal antibody (antibody, V domains shown) VH: EVQLQESGGGLVQPGGSLKLSCAASGFTFSDYGMAWVRQAPRKGPEWVAFISNLAYSIYYADTVTGRFTISRENAKNTLYLEMSSLRSEDTAMYFCTRTGYYALDYWGQGTSVTVSS VL: EIVLAQSPTTTAASPGEKITITCSASSSITSNYLHWYQQKPGFSPKLLIYRTSNLASGVPARFSGSGSGTSYSLTIGTMEAEDVATYYCQQGSSKTLTFGAGTKLELKR
